The supplement of paper PMC10567573

B1: NETO1 (parent)
chain: KTSLLDQLTNTSGTVIGVTSCIVI

Variants of: B1
Assay: protein stability index of a GFP-peptide fusion (GPS, HEK-293T) (PSI 1-6); higher = more stable
Settings: c terminus: a fixed tail appended
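Note: lentivirally expressed fusions sorted by FACS into six bins by GFP to DsRed ratio, PSI derived from sequencing read proportions per bin multiplied by bin number.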

Going from KTSLLDQLTNTSGTVIGVTSCIRI [V23R] to KTSLLDQLTNTSGTVIGVTSCILI [V23L], the protein stability index rises from 2.65 to 3.18.

First: KTSLLDQLTNTSGTVIGVTSCIDI [V23D]
Second: KTSLLDQLTNTSGTVIGVTSCIEI [V23E]
The protein stability index of the first is lower: 1.95 for the first, 2.98 for the second.

First: KTSLLDQLTNTSGTVIGVTSCINI [V23N]
Second: KTSLLDQLTNTSGTVIGVTSCIWI [V23W]
The protein stability index of the first is lower: 2.01 for the first, 2.74 for the second.

First: KTSLLDQLTNTSGTVIGVTSCIKI [V23K]
Second: KTSLLDQLTNTSGTVIGVTSCIPI [V23P]
The protein stability index of the first is higher: 3.04 for the first, 1.65 for the second.

First: KTSLLDQLTNTSGTVIGVTSCIYI [V23Y]
Second: KTSLLDQLTNTSGTVIGVTSCITI [V23T]
The protein stability index of the first is lower: 2.66 for the first, 2.85 for the second.

Going from KTSLLDQLTNTSGTVIGVTSCIMI [V23M] to KTSLLDQLTNTSGTVIGVTSCIHI [V23H], the protein stability index falls from 2.56 to 1.97.

Compared with KTSLLDQLTNTSGTVIGVTSCICI [V23C], KTSLLDQLTNTSGTVIGVTSCIFI [V23F] is lower in protein stability index: 3.17 for the first, 2.28 for the second.

First: KTSLLDQLTNTSGTVIGVTSCIII [V23I]
Second: KTSLLDQLTNTSGTVIGVTSCIQI [V23Q]
The protein stability index of the first is lower: 2.81 for the first, 2.87 for the second.

First: KTSLLDQLTNTSGTVIGVTSCIAI [V23A]
Second: KTSLLDQLTNTSGTVIGVTSCIGI [V23G]
The protein stability index of the first is higher: 2.03 for the first, 1.79 for the second.

First: KTSLLDQLTNTSGTVIGVTECIVI [S20E]
Second: KTSLLDQLTNTSGTVIGVTFCIVI [S20F]
The protein stability index of the first is higher: 4.15 for the first, 2.87 for the second.

Compared with KTSLLDQLTNTSGTVIGVTHCIVI [S20H], KTSLLDQLTNTSGTVIGVTVCIVI [S20V] is lower in protein stability index: 2.97 for the first, 2.44 for the second.

Going from KTSLLDQLTNTSGTVIGVTACIVI [S20A] to KTSLLDQLTNTSGTVIGVTPCIVI [S20P], the protein stability index falls from 3.66 to 2.98.

First: KTSLLDQLTNTSGTVIGVTWCIVI [S20W]
Second: KTSLLDQLTNTSGTVIGVTKCIVI [S20K]
The protein stability index of the first is higher: 3.86 for the first, 3.19 for the second.

Going from KTSLLDQLTNTSGTVIGVTRCIVI [S20R] to KTSLLDQLTNTSGTVIGVTYCIVI [S20Y], the protein stability index falls from 4.13 to 2.8.

Compared with KTSLLDQLTNTSGTVIGVTTCIVI [S20T], KTSLLDQLTNTSGTVIGVTQCIVI [S20Q] is higher in protein stability index: 2.37 for the first, 2.53 for the second.

First: KTSLLDQLTNTSGTVIGVTCCIVI [S20C]
Second: KTSLLDQLTNTSGTVIGVTLCIVI [S20L]
The protein stability index of the first is higher: 2.91 for the first, 2.79 for the second.

First: KTSLLDQLTNTSGTVIGVTGCIVI [S20G]
Second: KTSLLDQLTNTSGTVIGVTDCIVI [S20D]
The protein stability index of the first is lower: 2.14 for the first, 2.83 for the second.

Going from KTSLLDQLTNTSGTVIGVTNCIVI [S20N] to KTSLLDQLTNTSGTVIGVTMCIVI [S20M], the protein stability index falls from 3.04 to 2.89.

First: KTSLLDQLTNTSGTVIGVTICIVI [S20I]
Second: KTSLLDQLTNTSGTVIGVTSCIVP [I24P]
The protein stability index of the first is higher: 3.08 for the first, 2.33 for the second.

Compared with KTSLLDQLTNTSGTVIGVTSCIVN [I24N], KTSLLDQLTNTSGTVIGVTSCIVA [I24A] is lower in protein stability index: 2.08 for the first, 1.71 for the second.

Going from KTSLLDQLTNTSGTVIGVTSCIVV [I24V] to KTSLLDQLTNTSGTVIGVTSCIVT [I24T], the protein stability index falls from 2.2 to 1.6.

Compared with KTSLLDQLTNTSGTVIGVTSCIVC [I24C], KTSLLDQLTNTSGTVIGVTSCIVW [I24W] is higher in protein stability index: 1.64 for the first, 2.92 for the second.

Compared with KTSLLDQLTNTSGTVIGVTSCIVG [I24G], KTSLLDQLTNTSGTVIGVTSCIVK [I24K] is higher in protein stability index: 1.79 for the first, 2.04 for the second.

First: KTSLLDQLTNTSGTVIGVTSCIVE [I24E]
Second: KTSLLDQLTNTSGTVIGVTSCIVF [I24F]
The protein stability index of the first is higher: 2.21 for the first, 1.79 for the second.

First: KTSLLDQLTNTSGTVIGVTSCIVL [I24L]
Second: KTSLLDQLTNTSGTVIGVTSCIVM [I24M]
The protein stability index of the first is higher: 3.2 for the first, 2.45 for the second.

Compared with KTSLLDQLTNTSGTVIGVTSCIVS [I24S], KTSLLDQLTNTSGTVIGVTSCIVH [I24H] is higher in protein stability index: 1.94 for the first, 1.99 for the second.

First: KTSLLDQLTNTSGTVIGVTSCIVD [I24D]
Second: KTSLLDQLTNTSGTVIGVTSCIVY [I24Y]
The protein stability index of the first is lower: 2.54 for the first, 2.55 for the second.

Going from KTSLLDQLTNTSGTVIGVTSCIVQ [I24Q] to KTSLLDQLTNTSGTVIGVTSCIVR [I24R], the protein stability index rises from 1.62 to 1.74.

Going from KTSLLDQLTNTSGTVIGVTSCGVI [I22G] to KTSLLDQLTNTSGTVIGVTSCRVI [I22R], the protein stability index falls from 2.36 to 1.87.

First: KTSLLDQLTNTSGTVIGVTSCEVI [I22E]
Second: KTSLLDQLTNTSGTVIGVTSCHVI [I22H]
The protein stability index of the first is higher: 2.32 for the first, 2.1 for the second.

Going from KTSLLDQLTNTSGTVIGVTSCWVI [I22W] to KTSLLDQLTNTSGTVIGVTSCFVI [I22F], the protein stability index falls from 3.04 to 2.56.

Going from KTSLLDQLTNTSGTVIGVTSCKVI [I22K] to KTSLLDQLTNTSGTVIGVTSCQVI [I22Q], the protein stability index falls from 2.35 to 2.15.

First: KTSLLDQLTNTSGTVIGVTSCAVI [I22A]
Second: KTSLLDQLTNTSGTVIGVTSCYVI [I22Y]
The protein stability index of the first is lower: 2.12 for the first, 2.81 for the second.

Going from KTSLLDQLTNTSGTVIGVTSCSVI [I22S] to KTSLLDQLTNTSGTVIGVTSCLVI [I22L], the protein stability index rises from 1.45 to 2.08.

Going from KTSLLDQLTNTSGTVIGVTSCNVI [I22N] to KTSLLDQLTNTSGTVIGVTSCMVI [I22M], the protein stability index rises from 1.72 to 3.35.

Going from KTSLLDQLTNTSGTVIGVTSCVVI [I22V] to KTSLLDQLTNTSGTVIGVTSCPVI [I22P], the protein stability index falls from 3.37 to 2.37.

Going from KTSLLDQLTNTSGTVIGVTSCTVI [I22T] to KTSLLDQLTNTSGTVIGVTSCCVI [I22C], the protein stability index rises from 3.07 to 3.54.

Compared with KTSLLDQLTNTSGTVIGVTSCDVI [I22D], KTSLLDQLTNTSGTVIGVTSHIVI [C21H] is lower in protein stability index: 2.39 for the first, 2.2 for the second.

First: KTSLLDQLTNTSGTVIGVTSYIVI [C21Y]
Second: KTSLLDQLTNTSGTVIGVTSTIVI [C21T]
The protein stability index of the first is lower: 2.72 for the first, 2.88 for the second.

First: KTSLLDQLTNTSGTVIGVTSAIVI [C21A]
Second: KTSLLDQLTNTSGTVIGVTSKIVI [C21K]
The protein stability index of the first is lower: 2.7 for the first, 3.29 for the second.

Compared with KTSLLDQLTNTSGTVIGVTSMIVI [C21M], KTSLLDQLTNTSGTVIGVTSIIVI [C21I] is higher in protein stability index: 2.41 for the first, 2.7 for the second.

KTSLLDQLTNTSGTVIGVTSVIVI [C21V] and KTSLLDQLTNTSGTVIGVTSLIVI [C21L] are the same in protein stability index: 3.29 for the first, 3.29 for the second.

First: KTSLLDQLTNTSGTVIGVTSGIVI [C21G]
Second: KTSLLDQLTNTSGTVIGVTSDIVI [C21D]
The protein stability index of the first is higher: 3.12 for the first, 2.31 for the second.

Compared with KTSLLDQLTNTSGTVIGVTSSIVI [C21S], KTSLLDQLTNTSGTVIGVTSNIVI [C21N] is higher in protein stability index: 3.06 for the first, 3.1 for the second.

Compared with KTSLLDQLTNTSGTVIGVTSPIVI [C21P], KTSLLDQLTNTSGTVIGVTSQIVI [C21Q] is higher in protein stability index: 2.13 for the first, 3.44 for the second.

Compared with KTSLLDQLTNTSGTVIGVTSRIVI [C21R], KTSLLDQLTNTSGTVIGVTSEIVI [C21E] is lower in protein stability index: 3.31 for the first, 2.83 for the second.

Going from KTSLLDQLTNTSGTVIGVTSFIVI [C21F] to KTSLLDQLTNTSGTVIGVTSWIVI [C21W], the protein stability index falls from 3.65 to 2.62.
